According to article PMC7470980, “Mechanism of translation inhibition by type II GNAT toxin AtaT2” (Nucleic Acids Research, 2020):

B1: AtaR2 antitoxin (natural protein)
chain: MKPESKEAPINIRAKASQRDLIDMAANLVAKSRTDFMLDAACREAQDILLDQRLFILDDEQYDAFLAALDAPITAERQAKINALMNRKSPWE
B2: AtaT2 toxin (enzyme)
chain: MGITAPTPLTSEHNLADFCCSDHGMNEWLKKKALKNHSSGLSRVYVICIANTRQVIGYYCLSTGSIQRNLAPGAMRRNAPESLPVVVLGRLAIDQAWAGKGLGVALLKDAVYRTMSIAQQVGVRALIVHALDDSVRNFYLKYAFVPSPFQSLTLLYPITLE

What was measured:
[1] = molecular target: the molecule itself; assay: SEC; […]; 10 mM Tris-HCl pH 8.0, 150 mM NaCl; 0.2 ml/min; […]
SEC = molecular target: the molecule itself; assay: SEC

| Protein | stoichiometry N [1] | stoichiometry N (SEC) |
| --- | --- | --- |
| B1 | 4 |  |
| B2 |  | 2 |
